Usually Kd stands for the equilibrium constant for the complex coming apart. Read a high Kd as weaker binding. In general, IC50 refers to the concentration at which inhibition is half-maximal. The low end stands for inhibition by little substance, the high end for a need for much substance.

From US6762290, “High affinity vascular endothelial growth factor (VEGF) receptor nucleic acid ligands and inhibitors” (Gilead Sciences, Inc.) come the findings set out here.

Data set [1] concerns the target T1, VEGFR2 (KDR) extracellular domain/Fc (Homo sapiens, UniProt P35968 P35968:20-764). In words: filter. As to conditions: tags: C-terminal human IgG1 Fc fusion with Factor Xa site and His6; R&D Systems; NSO mouse myeloma cells; chain copies: 2 (stated, disulfide-linked homodimer).
In data set [2] the target is T2, VEGF receptors on HUVEC (VEGFR2/KDR) (Homo sapiens, UniProt P35968 P35968:20-1356). The data set is described as follows: competition; inhibition of 125I-VEGF-165 binding to HUVEC, DPBS with Ca, Mg, room temperature. The method, then:
(§1) We next examined whether a group of representative aptamers was able to inhibit the binding of [125]I-VEGF-165 to VEGF receptors expressed on HUVECs. Cells were seeded in 96-well plates at a density of about 10,000 cells/well and maintained until confluent. Culture medium was then replaced with growth factor deficient medium (MEM, 5% heat inactivated fetal bovine serum, 1 µg/ml heparin) for 3–4 hours. Cells were then washed with Dulbecco's phosphate-buffered saline (DPBS) (containing 1 mM CaCl_2, 1 mM MgCl_2 and 0.1% bovine serum albumin) followed by the addition of 100 µl/well of DPBS. [125]I-VEGF-165 ([…]) in the presence of varying amounts of aptamers (0.001–1000 nM) was then added to cells for 2 hours at room temperature. Unbound [125]I-VEGF-165 was then removed by washing with DPBS and the cells were lysed with Triton X-100. Lysates were harvested onto glass fiber filters plates and processed for scintillation counting. Aptamers K1, K10, K17 and K21 were tested. […] Thus, among the VEGFR2 aptamers tested, both receptor binding antagonists and non-antagonists have been identified.

Data set [3] has as its target T1, VEGFR2 (KDR) extracellular domain/Fc. The data set is described as follows: filter; 30N clone. The conditions noted are these: tags: C-terminal human IgG1 Fc fusion with Factor Xa site and His6; R&D Systems; NSO mouse myeloma cells; chain copies: 2 (stated, disulfide-linked homodimer).
Data set [4] has the same target. In words: filter; Table 2 prints CCACGGC where listing has ccaccgc. As to conditions: tags: C-terminal human IgG1 Fc fusion with Factor Xa site and His6; R&D Systems; NSO mouse myeloma cells; chain copies: 2 (stated, disulfide-linked homodimer).
Data set [5] concerns the target T2, VEGF receptors on HUVEC (VEGFR2/KDR). In words: competition; inhibition of 125I-VEGF-165 binding to HUVEC. The method, then:
as §1

The target in data set [6] is T1, VEGFR2 (KDR) extracellular domain/Fc. In words: filter; circularly permuted family member. As to conditions: tags: C-terminal human IgG1 Fc fusion with Factor Xa site and His6; R&D Systems; NSO mouse myeloma cells; chain copies: 2 (stated, disulfide-linked homodimer).

T1 sequence (P35968 20-764, one chain of several): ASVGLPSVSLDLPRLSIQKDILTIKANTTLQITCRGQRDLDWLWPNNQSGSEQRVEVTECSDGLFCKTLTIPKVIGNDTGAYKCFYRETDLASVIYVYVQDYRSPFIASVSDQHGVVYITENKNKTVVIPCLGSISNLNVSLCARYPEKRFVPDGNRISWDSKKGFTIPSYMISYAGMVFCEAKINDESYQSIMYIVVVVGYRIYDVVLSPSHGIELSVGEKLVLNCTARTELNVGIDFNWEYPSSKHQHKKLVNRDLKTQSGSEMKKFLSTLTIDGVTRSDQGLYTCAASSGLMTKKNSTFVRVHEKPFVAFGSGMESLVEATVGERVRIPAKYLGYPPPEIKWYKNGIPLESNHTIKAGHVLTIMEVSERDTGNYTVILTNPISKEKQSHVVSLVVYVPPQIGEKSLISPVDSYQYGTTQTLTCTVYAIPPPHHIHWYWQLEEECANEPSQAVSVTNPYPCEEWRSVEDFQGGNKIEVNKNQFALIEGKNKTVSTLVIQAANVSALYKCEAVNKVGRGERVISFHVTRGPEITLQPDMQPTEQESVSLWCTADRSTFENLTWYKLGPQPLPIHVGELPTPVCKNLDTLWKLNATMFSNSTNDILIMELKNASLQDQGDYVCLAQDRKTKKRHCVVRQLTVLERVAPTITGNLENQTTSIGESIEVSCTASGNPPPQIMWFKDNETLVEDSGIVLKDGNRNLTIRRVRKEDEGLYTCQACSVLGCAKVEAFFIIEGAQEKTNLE
T2 sequence (P35968 20-1356, one chain of several): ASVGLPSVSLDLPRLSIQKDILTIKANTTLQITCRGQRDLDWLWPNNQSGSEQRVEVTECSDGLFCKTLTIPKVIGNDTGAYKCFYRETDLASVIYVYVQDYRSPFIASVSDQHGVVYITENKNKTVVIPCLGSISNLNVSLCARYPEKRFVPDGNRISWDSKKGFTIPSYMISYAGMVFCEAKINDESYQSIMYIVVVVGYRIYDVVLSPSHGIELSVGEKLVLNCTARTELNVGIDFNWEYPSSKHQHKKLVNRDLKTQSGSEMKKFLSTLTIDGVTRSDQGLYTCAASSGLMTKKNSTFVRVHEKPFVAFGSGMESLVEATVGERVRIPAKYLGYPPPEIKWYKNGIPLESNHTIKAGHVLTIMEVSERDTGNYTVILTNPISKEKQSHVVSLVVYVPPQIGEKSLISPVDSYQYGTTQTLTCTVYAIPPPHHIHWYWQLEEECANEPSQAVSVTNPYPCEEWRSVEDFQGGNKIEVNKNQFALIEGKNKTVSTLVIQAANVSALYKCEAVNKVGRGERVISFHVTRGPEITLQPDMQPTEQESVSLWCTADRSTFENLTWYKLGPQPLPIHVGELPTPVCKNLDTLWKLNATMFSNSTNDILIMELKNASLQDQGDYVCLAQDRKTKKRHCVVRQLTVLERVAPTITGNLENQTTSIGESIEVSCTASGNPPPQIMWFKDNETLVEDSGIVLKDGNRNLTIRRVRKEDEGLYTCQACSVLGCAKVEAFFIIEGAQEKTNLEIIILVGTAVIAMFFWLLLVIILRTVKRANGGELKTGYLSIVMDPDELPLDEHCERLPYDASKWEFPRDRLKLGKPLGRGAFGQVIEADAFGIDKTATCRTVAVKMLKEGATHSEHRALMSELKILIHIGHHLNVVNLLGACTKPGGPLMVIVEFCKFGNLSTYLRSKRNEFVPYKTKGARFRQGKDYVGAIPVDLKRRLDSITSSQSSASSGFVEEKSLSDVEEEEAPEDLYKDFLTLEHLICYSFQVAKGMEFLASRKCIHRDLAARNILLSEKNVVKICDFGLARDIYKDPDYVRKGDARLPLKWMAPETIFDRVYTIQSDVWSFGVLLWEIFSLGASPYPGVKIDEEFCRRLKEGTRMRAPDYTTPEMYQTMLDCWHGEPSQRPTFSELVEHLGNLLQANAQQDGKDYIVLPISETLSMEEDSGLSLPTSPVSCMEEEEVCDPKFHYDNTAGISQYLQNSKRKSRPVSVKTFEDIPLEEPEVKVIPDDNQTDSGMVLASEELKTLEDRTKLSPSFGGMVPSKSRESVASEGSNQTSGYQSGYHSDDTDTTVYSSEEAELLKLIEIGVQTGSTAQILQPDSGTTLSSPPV

B1: K10 (ssRNA)
RNA: GGGAGGACGAUGCGGUUGAUCGAGGUUCUAAGGCCUAUUUCCUGACUUUCUCCCCCAGACGACUCGCCCGA
modifications: 2'-F pyrimidines
Regarding B1, the affinity in data set [1], expressed as Kd, was 0.47 nM. In data set [2], this molecule yielded an IC50 of 1 nM.

B2: K11 (ssRNA)
RNA: GGGAGGACGAUGCGGUUGAUCGAGGUUCUAAAGCCUAUUUCCUGACUUUCUCCCCCAGACGACUCGCCCGA
modifications: 2'-F pyrimidines
Regarding B2, in data set [1], the dissociation constant (Kd) came out at 0.61 nM.

B3: K23 (ssRNA)
RNA: GGGAGGACGAUGCGGACACACACAUCAUAAACAUUGUCCGUUGACCAGACGACUCGCCCGA
modifications: 2'-F pyrimidines
With B3, the Kd in data set [3] came out at 2.2 nM.

B4: K4 (ssRNA)
RNA: GGGAGGACGAUGCGGAGGUGCUCCUUUGGAACUUCGUAUUUGUCUGCUCCUGGUCAGACGACUCGCCCGA
modifications: 2'-F pyrimidines
Molecule B4 showed a Kd in data set [1] of 0.28 nM.

B5: K1 (ssRNA)
RNA: GGGAGGACGAUGCGGGGCCUGUUUGGAUCAUACCGAUCGUCAAUCCAAGAGUGGUCAGACGACUCGCCCGA
modifications: 2'-F pyrimidines
Turning to B5, binding in data set [1] was characterised by a dissociation constant (Kd) of 0.07 nM.

B6: K2 (ssRNA)
RNA: GGGAGGACGAUGCGGGGCCUGUUUGGAUCAUACCGAUCGUCAAUCCUAAAGUGGUCAGACGACUCGCCCGA
modifications: 2'-F pyrimidines
Molecule B6 showed a Kd in data set [1] of 0.27 nM.

B7: K13 (ssRNA)
RNA: GGGAGGACGAUGCGGAACCAAUUAAGUCUGGCAAAUCUCUCUGUGCAGACGACUCGCCCGA
modifications: 2'-F pyrimidines
Turning to B7, in data set [3], the Kd amounted to 0.75 nM.

B8: K5 (ssRNA)
RNA: GGGAGGACGAUGCGGCAUGGGGCCUGACUGGAUCAUACCACCGCUUCCUCUGGUCAGACGACUCGCCCGA
modifications: 2'-F pyrimidines
Consider B8, for which the Kd in data set [1] amounted to 0.44 nM.

B9: K3 (ssRNA)
RNA: GGGAGGACGAUGCGGCAUGGGGCCUGACUGGAUCAUACCACCGCUUUCUCUGGUCAGACGACUCGCCCGA
modifications: 2'-F pyrimidines
On to B9, for which, in data set [4], the Kd was 0.51 nM.

B10: K7 (ssRNA)
RNA: GGGAGGACGAUGCGGACGAUAACACAGGGCCUGCUUGGAUCACACUGAUUGCGCCCAGACGACUCGCCCGA
modifications: 2'-F pyrimidines
Regarding B10, binding in data set [1] was characterised by a dissociation constant (Kd) of 0.46 nM.

B11: K21 (ssRNA)
RNA: GGGAGGACGAUGCGGAUCAUACCGAAGAGACACGGGGCCACCAUAUCCUCACCCCCAGACGACUCGCCCGA
modifications: 2'-F pyrimidines
As for B11, in data set [5], the IC50 amounted to 79 nM. Moreover, the Kd in data set [6] stood at 0.26 nM.

B12: K12 (ssRNA)
RNA: GGGAGGACGAUGCGGAAACGGAAGAAUUGGAGACCGACGUCGACCUCUUGGCCCCAGACGACUCGCCCGA
modifications: 2'-F pyrimidines
Molecule B12 came in with a Kd in data set [1] of 15.4 nM.
